Data reported in patent US20040224408A1, “THAP proteins as nuclear receptors for chemokines and roles in transcriptional regulation, cell proliferation and cell differentiation” (published 2004).

T1: THAP1 THAP domain (Homo sapiens, UniProt Q9NVV9 SEQ:1-90)
T1 sequence: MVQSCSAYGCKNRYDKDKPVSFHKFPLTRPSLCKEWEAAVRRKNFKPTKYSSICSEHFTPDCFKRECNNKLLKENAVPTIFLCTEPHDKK

T2: human THAP1 (THanatos (death)-Associated Protein-1), full length (human, UniProt Q9NVV9 1-213)
T2 construct: also called hTHAP1; FLJ10477
T2 sequence: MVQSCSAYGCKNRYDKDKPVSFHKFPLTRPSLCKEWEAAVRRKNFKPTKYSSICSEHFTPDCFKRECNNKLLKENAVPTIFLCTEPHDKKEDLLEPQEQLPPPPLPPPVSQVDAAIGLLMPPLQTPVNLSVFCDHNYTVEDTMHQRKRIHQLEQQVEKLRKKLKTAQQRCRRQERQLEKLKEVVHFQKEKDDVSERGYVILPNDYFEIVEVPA

T3: human chemokine SLC/CCL21, mature form (amino acids 24-134) (human, UniProt O00585 24-134)
T3 construct: also called SLC/6Ckine; SLC/CCL21 wild type
T3 sequence: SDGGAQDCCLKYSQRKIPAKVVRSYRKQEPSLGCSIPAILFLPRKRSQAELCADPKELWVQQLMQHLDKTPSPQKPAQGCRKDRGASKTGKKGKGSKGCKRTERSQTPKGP


Assays:
THAP1 THAP domain = target: T1, THAP1 THAP domain; test: EMSA; 20 mM Tris-HCl pH 7.5, 100 mM KCl, room temperature; details: tags: C-terminal His6 (pET-21c); label: 32P
Procedure: To confirm that the THAP domain is a novel sequence specific DNA-binding domain, electrophoretic mobility shift assays (EMSA) were carried out using wild-type or mutant THAP domain responsive elements (THRE) determined by SELEX (see Example 28 and FIGS. 18 and 24). Double-stranded probes used in EMSA experiments were purified on 12% polyacrylamide gels, ³²P end labeled with T4 polynucleotide kinase and quantified by Cerenkov counting. About 20 ng of purified THAP domain from human THAP1 (prepared as described in Example 28) was incubated with 30000 cpm of the appropriate probe (about 2 ng). Binding reactions were carried out for 10 minutes at room temperature in 20 μl binding buffer (20 mM Tris-HCl pH 7.5, 100 mM KCl, 0.1% NP-40, 100 μg/ml BSA, 2.5 mM DTT, 5% glycerol, 200 ng poly (dI-dC)). Electrophoresis was performed on 8% (29:1) polyacrylamide gels containing 5% glycerol. Gels were run in 0.25×TBE at 150V and 4° C., dried and exposed on a phosphoimager screen (Molecular Dynamics). Sequences of wild type and mutant THRE oligonucleotides used in EMSA experiments were as follow (mutations are indicated in bold): wild-type probe 3, 5′-[…]-3′ (SEQ ID NO: 313); mutant probe 3mut1, 5′-[…]-3′ (SEQ ID NO: 314); mutant probe 3mut3, 5′-[…]-3′ (SEQ ID NO: 319); mutant probe 3mut4, 5′-[…]-3′ (SEQ ID NO: 320); mutant probe 3mut14, 5′-[…]-3′ (SEQ ID NO: 321); mutant probe 3mut5, 5′-[…]-3′ (SEQ ID NO: 322).
For competition experiments, 50-, 150-, and 250-fold molar excess of unlabelled wild-type (THRE competitor, probe 3) or mutant (non-specific competitor, probe 3mut1) THRE oligonucleotides were added to the reaction mixture just before the addition of the probe.

human THAP1 (THanatos …) [1] = target: T2, human THAP1 (THanatos …); test: yeast two-hybrid, pGADT7-THAP1 mutant with pGBKT7-THAP1 wild-type
Procedure: Two-hybrid interaction between THAP1 mutants and THAP1 wild type was tested by cotransformation of AH109 with pGADT7-THAP1-C1, -C2, -C3, -N1, -N2 or -N3 and pGBKT7-THAP1 wild-type and selection of transformants by His and Ade double auxotrophy according to manufacturer's instructions ([…] two-hybrid system 3, Clontech).

[2] = target: T4, Glutathione S-transferase (GST) control protein (pGEX-2T) (UniProt P08515 1-218 = GST); test: GST pull-down, immobilized GST control, in vitro translated 35S-labelled chemokine
T4 construct: Negative control immobilized on glutathione sepharose; also called GST beads; immobilized GST alone
Procedure: To confirm the interaction observed in yeast two-hybrid system, we performed in vitro GST pull down assays. THAP1, expressed as a GST-tagged fusion protein and immobilized on glutathione sepharose, was incubated with radiolabeled chemokines that were translated in vitro.
In vitro-translated chemokines were generated with the TNT-coupled reticulocyte lysate system (Promega, Madison, Wis., USA) using as templates pGBKT7-CCL21, -CCL19, -CXCL9, -CXCL10 and CXCL11 chemokine vectors (see Example 32) or pCMV-SPORT6-CCL5 plasmid (Image clone No. 4185200). In vitro-translated IFNγ cytokine was generated similarly using as template plasmid pGBKT7-IFNγ. A 25 μvolume of ³⁵S-labelled chemokine was incubated with immobilized GST-THAP1 or GST proteins overnight at 4° C., in the following binding buffer: 10 mM NaPO4 pH 8.0, 140 mM NaCl, 3 mM MgCl₂, 1 mM dithiothreitol (DTT), 0.05% NP40, and 0.2 mM phenylmethyl sulphonyl fluoride (PMSF), 1 mM Na vanadate, 50 mM β-glycerophosphate, 25 μg/ml chymotrypsine, 5 μg/ml aprotinin, and 10 μg/ml leupeptin. Beads were then washed 5 times in 1 ml binding buffer. Bound proteins were eluted with 2×Laemmli SDS-PAGE sample buffer, fractionated by 10% SDS-PAGE and visualized by fluorography using Amplify (Amersham Pharmacia Biotech). GST/THAP1 specifically bound to chemokines CCL21, CCL19, CCL5, CXCL9, CXCL10 and CXCL11 but not cytokine IFNγ (FIGS. 19 and 20). […] CXCL10 also bound to immobilized GST-THAP1 (indicated by ++ in the column labelled “In vitro binding to GST-THAP1”).

[3] = target: T3, human chemokine SLC/CCL21, mature form …; test: yeast two-hybrid, pGADT7-THAP1 mutant with pGBKT7-SLC/CCL21
Procedure: Two-hybrid interaction between THAP1 mutants and chemokine SLC/CCL21 was tested by cotransformation of AH109 with pGADT7-THAP1-C1, -C2, -C3, -N1, -N2 or -N3 and pGBKT7-SLC/CCL21 and selection of transformants by His and Ade double auxotrophy according to manufacturer's instructions ([…] two-hybrid system 3, Clontech). pGBKT7-SLC/CCL21 vector was generated by subcloning the BamHI SLC/CCL21 fragment from pGBT9-SLC (see example 1) into the unique BamHI cloning site of vector pGBKT7 (Clontech).

human THAP1 (THanatos …) [4] = target: T2, human THAP1 (THanatos …); test: yeast two-hybrid, pGADT7-THAP1 with pGBKT7-chemokine
Excerpt: […]

T4 sequence (P08515 whole entry): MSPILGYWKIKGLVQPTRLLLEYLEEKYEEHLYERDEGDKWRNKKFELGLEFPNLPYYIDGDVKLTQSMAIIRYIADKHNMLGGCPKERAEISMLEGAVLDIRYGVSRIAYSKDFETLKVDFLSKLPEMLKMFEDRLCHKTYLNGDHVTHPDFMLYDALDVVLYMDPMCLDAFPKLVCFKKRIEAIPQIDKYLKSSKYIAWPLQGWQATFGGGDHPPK

Binder | binding result (THAP1 THAP domain) | binding result (human THAP1 (THanatos …) [1]) | other results
3mut5 (dsDNA) DNA 1: AGCAAGTAAGGGAAAACTACTTCAT DNA 2: ATGAAGTAGTTTTCCCTTACTTGCT | no binding | – | –
THAP1-N3 deletion mutant (amino acids 1-192) (other, Tested as a Gal4-BD or Gal4-AD fusion, as in vitro translated 35S-labelled protein and as an EGFP fusion) MVQSCSAYGCKNRYDKDKPVSFHKFPLTRPSLCKEWEAAVRRKNFKPTKYSSICSEHFTPDCFKRECNNKLLKENAVPTIFLCTEPHDKKEDLLEPQEQLPPPPLPPPVSQVDAAIGLLMPPLQTPVNLSVFCDHNYTVEDTMHQRKRIHQLEQQVEKLRKKLKTAQQRCRRQERQLEKLKEVVHFQKEKDD | – | binds | –
human chemokine I-TAC/CXCL11, mature form (amino acids 22-94) (ligand, The range is stated on the GenBank entry; Tested as a Gal4-BD fusion (pGBKT7-CXCL11) and as in vitro translated 35S-labelled protein from that vector) FPMFKRGRCLCIGPGVKAVKVADIEKASIMYPSNNCDKIEVIITLKENKGQRCLNPKSKQARLIIKKVERKNF | – | – | binding result [2]: no binding
THAP1-C3 deletion mutant (amino acids 143-213) (other, Tested as a Gal4-BD or Gal4-AD fusion, as in vitro translated 35S-labelled protein and as an EGFP fusion) MHQRKRIHQLEQQVEKLRKKLKTAQQRCRRQERQLEKLKEVVHFQKEKDDVSERGYVILPNDYFEIVEVPA | – | binds | binding result [3]: binds
3mut4 (dsDNA) DNA 1: AGCAAGTAAGTGCAAACTACTTCAT DNA 2: ATGAAGTAGTTTGCACTTACTTGCT | no binding | – | –
3mut14 (dsDNA) DNA 1: AGCAAGTAAGGGCCAACTACTTCAT DNA 2: ATGAAGTAGTTGGCCCTTACTTGCT | no binding | – | –
THAP1-C2 deletion mutant (amino acids 120-213) (other, Tested as a Gal4-BD or Gal4-AD fusion, as in vitro translated 35S-labelled protein and as an EGFP fusion) MPPLQTPVNLSVFCDHNYTVEDTMHQRKRIHQLEQQVEKLRKKLKTAQQRCRRQERQLEKLKEVVHFQKEKDDVSERGYVILPNDYFEIVEVPA | – | binds | binding result [3]: binds
3mut3 (dsDNA) DNA 1: AGCAAGTAAGGTCAAACTACTTCAT DNA 2: ATGAAGTAGTTTGACCTTACTTGCT | no binding | – | –
THAP1-C1 deletion mutant (amino acids 90-213) (other, Tested as a Gal4-BD or Gal4-AD fusion, as in vitro translated 35S-labelled protein and as an EGFP fusion; also called THAP1ΔTHAP; THAP1?THAP) KEDLLEPQEQLPPPPLPPPVSQVDAAIGLLMPPLQTPVNLSVFCDHNYTVEDTMHQRKRIHQLEQQVEKLRKKLKTAQQRCRRQERQLEKLKEVVHFQKEKDDVSERGYVILPNDYFEIVEVPA | – | binds | –
human chemokine ELC/CCL19, mature form (amino acids 22-98) (ligand, The range is stated on the GenBank entry; Tested as a Gal4-BD fusion (pGBKT7-CCL19) and as in vitro translated 35S-labelled protein from that vector; also called MIP3b/CCL19) GTNDAEDCCLSVTQKPIPGYIVRNFHYLLIKDGCRVPAVVFTTLRGRQLCAPPDQPWVERIIQRLQRTSAKMKRRSS | – | – | binding result (human THAP1 (THanatos …) [4]): binds; binding result [2]: no binding
human chemokine MIG/CXCL9, mature form (amino acids 23-125) (ligand, The range is stated on the GenBank entry; Tested as a Gal4-BD fusion (pGBKT7-CXCL9) and as in vitro translated 35S-labelled protein from that vector) TPVVRKGRCSCISTNQGTIHLQSLKDLKQFAPSPSCEKIEIIATLKNGVQTCLNPDSADVKELIKKWEKQVSQKKKQKNGKKHQKKKVLKVRKSQRSRQKKTT | – | – | binding result (human THAP1 (THanatos …) [4]): binds; binding result [2]: no binding
